# Experiments:
# [1] = target: Puromycin-sensitive aminopeptidase, wild type, with C-terminal polyhistidine sequence (kinetic studies) (human) (UniProt P55786); experiment: competitive inhibition of enzyme activity (Dixon plots); apparent Ki from inhibition of Ala-4MβNA cleavage at increasing peptide concentrations; 20 mM HEPES pH 7.0, 2 mM BME, 37°C; 20 μM (PSA^wt) or 100 μM (PSA^F433A) Ala-4MβNA; triplicate
# [2] = target: Puromycin-sensitive aminopeptidase F433A mutant, with C-terminal polyhistidine sequence (human) (UniProt P55786); experiment: as above
# Puromycin-sensitive aminopeptidase F433A mutant, with C-terminal polyhistidine sequence (human), sequence (P55786 whole entry F433A): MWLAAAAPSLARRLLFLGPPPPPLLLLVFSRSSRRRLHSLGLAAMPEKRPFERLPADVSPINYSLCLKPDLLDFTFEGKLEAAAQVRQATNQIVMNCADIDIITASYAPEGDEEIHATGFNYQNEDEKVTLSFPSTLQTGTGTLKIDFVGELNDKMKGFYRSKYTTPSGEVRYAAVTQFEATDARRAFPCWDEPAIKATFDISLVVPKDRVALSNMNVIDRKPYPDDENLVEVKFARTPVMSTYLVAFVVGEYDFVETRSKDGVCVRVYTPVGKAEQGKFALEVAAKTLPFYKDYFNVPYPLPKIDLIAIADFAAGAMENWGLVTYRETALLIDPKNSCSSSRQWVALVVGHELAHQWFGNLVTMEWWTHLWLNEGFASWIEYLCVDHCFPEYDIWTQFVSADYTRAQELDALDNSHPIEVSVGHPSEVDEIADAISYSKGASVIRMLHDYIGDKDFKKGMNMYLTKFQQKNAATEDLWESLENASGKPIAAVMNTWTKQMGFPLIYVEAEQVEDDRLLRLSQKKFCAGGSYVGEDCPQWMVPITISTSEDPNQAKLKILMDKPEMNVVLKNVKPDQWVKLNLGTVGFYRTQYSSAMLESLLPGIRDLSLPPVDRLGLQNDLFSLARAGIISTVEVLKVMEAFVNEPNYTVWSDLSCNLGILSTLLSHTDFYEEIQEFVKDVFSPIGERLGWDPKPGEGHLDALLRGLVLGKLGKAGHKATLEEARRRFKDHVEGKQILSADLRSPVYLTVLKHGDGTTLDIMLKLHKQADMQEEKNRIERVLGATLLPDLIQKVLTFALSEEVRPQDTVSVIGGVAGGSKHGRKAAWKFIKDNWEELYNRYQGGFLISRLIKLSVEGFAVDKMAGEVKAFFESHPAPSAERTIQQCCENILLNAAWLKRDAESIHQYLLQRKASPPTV
# Puromycin-sensitive aminopeptidase, wild type, with C-terminal polyhistidine sequence (kinetic studies) (human), sequence (P55786 whole entry): as the sequence (P55786 whole entry F433A) above, with A433F counted along it
substance,measurement,setting,value
Dynorphin A(1–17) (peptide),Ki,[1],0.44 µM
same,Ki,[2],2.6 µM

# Source: publication PMC10343166
